The record followed here is US20090286719A1.

Experiment [1] has as its target a site on the cancer and normal cell surface (human). Description: whole-cell binding assay on UISO-Mel-2 cells, 125I azurin with or without unlabeled competitor, Scatchard analysis.
Experiment [2] shares this target. Put plainly: whole-cell binding assay on UISO-Mel-2 cells with 125I azurin, Scatchard analysis.

“p28, Leu50-Asp77 of Pseudomonas aeruginosa azurin (peptide)” gave a Bmax in experiment [1] of 3. The same measure, in the same setting: under “p18, Leu50-Gly67 of Pseudomonas aeruginosa azurin (peptide)” stands 0.51 pm. Broadly, the Kd is the constant that tells how readily two partners part at equilibrium. In experiment [2], “azurin from Pseudomonas aeruginosa (wt-azurin)” returned a Bmax of 0.48 pm and a Kd of 0.01 µM.
